{"source": "the Immune Epitope Database (IEDB)", "settings_in_all_cases": "source organism: Cryptosporidium parvum Iowa II", "key": {"[1]": {"target": "HLA-B*46:01", "assay": "IEDB peptide-MHC binding, purified MHC/direct/fluorescence; filed as Kd, often an IC50 or EC50 that approximates it; ≥ and ≤ were set here for values at or beyond the usual limits of such assays"}, "[2]": {"target": "HLA-B*15:17", "assay": "IEDB peptide-MHC binding, purified MHC/direct/fluorescence; filed as Kd, often an IC50 or EC50 that approximates it; ≥ and ≤ were set here for values at or beyond the usual limits of such assays"}, "[3]": {"target": "HLA-B*39:01", "assay": "IEDB peptide-MHC binding, purified MHC/direct/fluorescence; filed as Kd, often an IC50 or EC50 that approximates it; ≥ and ≤ were set here for values at or beyond the usual limits of such assays"}, "[4]": {"target": "HLA-A*02:03", "assay": "IEDB peptide-MHC binding, purified MHC/direct/fluorescence; filed as Kd, often an IC50 or EC50 that approximates it; ≥ and ≤ were set here for values at or beyond the usual limits of such assays"}, "[5]": {"target": "HLA-A*02:12", "assay": "IEDB peptide-MHC binding, purified MHC/direct/fluorescence; filed as Kd, often an IC50 or EC50 that approximates it; ≥ and ≤ were set here for values at or beyond the usual limits of such assays"}, "[6]": {"target": "HLA-A*68:02", "assay": "IEDB peptide-MHC binding, purified MHC/direct/fluorescence; filed as Kd, often an IC50 or EC50 that approximates it; ≥ and ≤ were set here for values at or beyond the usual limits of such assays"}, "[7]": {"target": "HLA-B*57:01", "assay": "IEDB peptide-MHC binding, purified MHC/direct/fluorescence; filed as Kd, often an IC50 or EC50 that approximates it; ≥ and ≤ were set here for values at or beyond the usual limits of such assays"}, "[8]": {"target": "HLA-A*24:03", "assay": "IEDB peptide-MHC binding, purified MHC/direct/fluorescence; filed as Kd, often an IC50 or EC50 that approximates it; ≥ and ≤ were set here for values at or beyond the usual limits of such assays"}, "[9]": {"target": "HLA-A*26:01", "assay": "IEDB peptide-MHC binding, purified MHC/direct/fluorescence; filed as Kd, often an IC50 or EC50 that approximates it; ≥ and ≤ were set here for values at or beyond the usual limits of such assays"}, "[10]": {"target": "HLA-B*15:01", "assay": "IEDB peptide-MHC binding, purified MHC/direct/fluorescence; filed as Kd, often an IC50 or EC50 that approximates it; ≥ and ≤ were set here for values at or beyond the usual limits of such assays"}, "[11]": {"target": "HLA-A*02:19", "assay": "IEDB peptide-MHC binding, purified MHC/direct/fluorescence; filed as Kd, often an IC50 or EC50 that approximates it; ≥ and ≤ were set here for values at or beyond the usual limits of such assays"}, "[12]": {"target": "HLA-A*23:01", "assay": "IEDB peptide-MHC binding, purified MHC/direct/fluorescence; filed as Kd, often an IC50 or EC50 that approximates it; ≥ and ≤ were set here for values at or beyond the usual limits of such assays"}, "[13]": {"target": "HLA-A*29:02", "assay": "IEDB peptide-MHC binding, purified MHC/direct/fluorescence; filed as Kd, often an IC50 or EC50 that approximates it; ≥ and ≤ were set here for values at or beyond the usual limits of such assays"}, "[14]": {"target": "HLA-A*02:01", "assay": "IEDB peptide-MHC binding, purified MHC/direct/fluorescence; filed as Kd, often an IC50 or EC50 that approximates it; ≥ and ≤ were set here for values at or beyond the usual limits of such assays"}, "[15]": {"target": "HLA-B*27:03", "assay": "IEDB peptide-MHC binding, purified MHC/direct/fluorescence; filed as Kd, often an IC50 or EC50 that approximates it; ≥ and ≤ were set here for values at or beyond the usual limits of such assays"}, "[16]": {"target": "HLA-A*03:01", "assay": "IEDB peptide-MHC binding, purified MHC/direct/fluorescence; filed as Kd, often an IC50 or EC50 that approximates it; ≥ and ≤ were set here for values at or beyond the usual limits of such assays"}, "[17]": {"target": "HLA-A*02:16", "assay": "IEDB peptide-MHC binding, purified MHC/direct/fluorescence; filed as Kd, often an IC50 or EC50 that approximates it; ≥ and ≤ were set here for values at or beyond the usual limits of such assays"}, "[18]": {"target": "HLA-B*18:01", "assay": "IEDB peptide-MHC binding, purified MHC/direct/fluorescence; filed as Kd, often an IC50 or EC50 that approximates it; ≥ and ≤ were set here for values at or beyond the usual limits of such assays"}, "[19]": {"target": "HLA-A*66:01", "assay": "IEDB peptide-MHC binding, purified MHC/competitive/fluorescence; filed as Kd, often an IC50 or EC50 that approximates it; ≥ and ≤ were set here for values at or beyond the usual limits of such assays"}, "[20]": {"target": "HLA-A*01:01", "assay": "IEDB peptide-MHC binding, purified MHC/competitive/fluorescence; filed as Kd, often an IC50 or EC50 that approximates it; ≥ and ≤ were set here for values at or beyond the usual limits of such assays"}, "[21]": {"target": "HLA-A*11:01", "assay": "IEDB peptide-MHC binding, purified MHC/competitive/fluorescence; filed as Kd, often an IC50 or EC50 that approximates it; ≥ and ≤ were set here for values at or beyond the usual limits of such assays"}, "[22]": {"target": "HLA-B*44:02", "assay": "IEDB peptide-MHC binding, purified MHC/competitive/fluorescence; filed as Kd, often an IC50 or EC50 that approximates it; ≥ and ≤ were set here for values at or beyond the usual limits of such assays"}, "[23]": {"target": "HLA-B*27:05", "assay": "IEDB peptide-MHC binding, purified MHC/competitive/fluorescence; filed as Kd, often an IC50 or EC50 that approximates it; ≥ and ≤ were set here for values at or beyond the usual limits of such assays"}, "[24]": {"target": "HLA-B*58:01", "assay": "IEDB peptide-MHC binding, purified MHC/competitive/fluorescence; filed as Kd, often an IC50 or EC50 that approximates it; ≥ and ≤ were set here for values at or beyond the usual limits of such assays"}, "[25]": {"target": "HLA-B*08:01", "assay": "IEDB peptide-MHC binding, purified MHC/competitive/fluorescence; filed as Kd, often an IC50 or EC50 that approximates it; ≥ and ≤ were set here for values at or beyond the usual limits of such assays"}}, "data": [{"sequence": "TVFRNQNRV", "values": [{"measurement": "Kd", "setting": "[1]", "value": "≥ 20", "unit": "µM"}, {"measurement": "Kd", "setting": "[2]", "value": "≥ 20", "unit": "µM"}, {"measurement": "Kd", "setting": "[3]", "value": "≥ 20", "unit": "µM"}, {"measurement": "Kd", "setting": "[4]", "value": "≥ 20", "unit": "µM"}, {"measurement": "Kd", "setting": "[5]", "value": "≥ 20", "unit": "µM"}, {"measurement": "Kd", "setting": "[6]", "value": "≤ 0.001", "unit": "µM"}, {"measurement": "Kd", "setting": "[7]", "value": "≥ 20", "unit": "µM"}, {"measurement": "Kd", "setting": "[8]", "value": "≥ 20", "unit": "µM"}, {"measurement": "Kd", "setting": "[9]", "value": "≥ 20", "unit": "µM"}, {"measurement": "Kd", "setting": "[10]", "value": "≥ 20", "unit": "µM"}, {"measurement": "Kd", "setting": "[11]", "value": "≥ 20", "unit": "µM"}, {"measurement": "Kd", "setting": "[12]", "value": "≥ 20", "unit": "µM"}, {"measurement": "Kd", "setting": "[13]", "value": "≥ 20", "unit": "µM"}, {"measurement": "Kd", "setting": "[14]", "value": "≥ 20", "unit": "µM"}, {"measurement": "Kd", "setting": "[15]", "value": "≥ 20", "unit": "µM"}, {"measurement": "Kd", "setting": "[16]", "value": "≥ 20", "unit": "µM"}, {"measurement": "Kd", "setting": "[17]", "value": "≥ 20", "unit": "µM"}, {"measurement": "Kd", "setting": "[18]", "value": "≥ 20", "unit": "µM"}, {"measurement": "Kd", "setting": "[19]", "value": "≥ 5", "unit": "µM"}, {"measurement": "Kd", "setting": "[20]", "value": "≥ 5", "unit": "µM"}, {"measurement": "Kd", "setting": "[21]", "value": "≥ 5", "unit": "µM"}, {"measurement": "Kd", "setting": "[22]", "value": "≥ 5", "unit": "µM"}, {"measurement": "Kd", "setting": "[23]", "value": "≥ 5", "unit": "µM"}, {"measurement": "Kd", "setting": "[24]", "value": "≥ 5", "unit": "µM"}, {"measurement": "Kd", "setting": "[25]", "value": "≥ 5", "unit": "µM"}]}]}
